# From PMC5296606, “A Ferredoxin- and F420H2-Dependent, Electron-Bifurcating, Heterodisulfide Reductase with Homologs in the Domains Bacteria and Archaea” (mBio, 2017)
# B1: HdrB2C2 (Methanosarcina acetivorans C2A) (protein)
# chain: MAKLSLFRGCIVPNRYPGIEKATKLCLQKLEVDAVDLPGASCCPAPGVFKSFDKATWLALASRNIVLSERMGRDILTVCNGCYGSLADANIELKNDPEMKACTNSCLKEIGMEYKGTAEVRHIIEFLYKELGPEKLKSFITTPLDLKVALHYGCHLIKPSKERNLGETEAPVFFDELVEATGAKSVDYTDKMMCCGAGGGVRSGHAAESLEMLEHKLACIRNAGVDCIVNACPFCHLQFDRGQLAVNEKFGTDYSIPVLHYSQLLGLALGFSPDELGIEQNAIQNIEFLAKIYEISAGLR
# notes: with Heterodisulfide reductase subunit C2 (CoB--CoM heterodisulfide reductase iron-sulfur subunit C 2)
# B2: HdrA2B2C2 (Methanosarcina acetivorans C2A) (protein)
# chain: B1 chain
# notes: complex reconstituted by mixing recombinant HdrA2 (C-terminal His6) with copurified HdrB2C2 (His6 on HdrB2); with Heterodisulfide reductase subunit C2 (CoB--CoM heterodisulfide reductase iron-sulfur subunit C 2); H(2)/F420-type heterodisulfide reductase subunit A2 (CoB--CoM heterodisulfide reductase iron-sulfur subunit A 2; HdrA-MvhD fusion)
# B3: HdrB2 (Methanosarcina acetivorans C2A) (protein)
# chain: B1 chain
# Key:
# Type in all cases: biochemical, Methanosarcina acetivorans
# [1] = substrate: C[C@@H](OP(=O)(O)O)[C@H](NC(=O)CCCCCCS)C(=O)O; assay: reverse heterodisulfide reductase assay; details: co-substrate HSCoM, 21 °C
# [2] = substrate: O=S(=O)(O)CCS; assay: reverse heterodisulfide reductase assay; details: co-substrate HSCoB, 21 °C
# [3] = substrate: C[C@@H](OP(=O)(O)O)[C@H](NC(=O)CCCCCCSSCCS(=O)(=O)O)C(=O)O; assay: forward heterodisulfide reductase assay with reduced methyl viologen; details: reduced methyl viologen as electron donor, 21 °C, HdrA2 + HdrB2C2, no ferredoxin
# From the text: forward heterodisulfide reductase assay with reduced methyl viologen on HdrA2B2C2
protein,measurement,setting,value
B1,Km,[1]; no HdrA2,1200 ± 200 µM
same,Km,[2]; no HdrA2,1400 ± 200 µM
same,Vmax,[2]; no HdrA2,0.6 µmol/min/mg
B2,Km,[3],50 ± 10 µM
same,Vmax,[3],2.2 µmol/min/mg
B3,Km,[1]; HdrB2 alone,1100 ± 200 µM
same,Km,[2]; HdrB2 alone,1200 ± 300 µM
same,Vmax,[2]; HdrB2 alone,0.5 µmol/min/mg
